The values that follow come from patent WO2018083240A1 (dated 2018).

Assay [1] addresses Screening Peptide DDR1_HUMAN(788-808)[pY796] (human). In words: ELISA, biotinylated peptide on streptavidin plate, 30 ul transfection supernatant.
The target in assay [2] is T1, Screening Peptide DDR1_HUMAN(788-808) (human, N-terminal Glu(Bi-PEG) (residue 1 of the letters given); C-terminal amide (-NH2)).
T1 construct: The leading E stands for the printed Glu(Bi-PEG), which is not part of DDR1 788-808; also called non-phosphorylated screening peptide
T1 peptide: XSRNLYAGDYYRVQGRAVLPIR
The description is as above.

Assay [3] has as its target Screening Peptide DDR1_HUMAN(788-808)[pY796] (human). As to the kind of experiment: SPR (Biacore T200), antibody captured by goat anti-rabbit Fc, peptide as analyte, 25 C; value of Table 3 as repeated in the description.

B1: rabbit monoclonal anti-pY796-DDR1 antibody 22D9 (antibody, V domains shown)
VH: QSVEESGGRLVTPGTPLTLTCKVSGFSLSNYHMIWVRQAPGKGLEWIGIISRRGTTWYASWVKGRFTISKSSTTVDLKITSPTTEDTATYFCARGGVDSSYRDLWGPGTLVTVSS
VL: QVLTQTPSSVSAAVGGTVTINCQSNQRVANVNCLAWYQQKPGQPPKLLIYDASSLASGVPSRFSGSGSGTQFTLSISGVQCGDAATYYCQGTYATFGASAWYGDAFGGGTEVVVE
notes: Full-length rabbit IgG (150 kDa), expressed in HEK293 cells; Same variable domains as 31A5; also called clone 22D9
In the case of B1, the OD 405 in assay [1] turned out to be 3.12 OD 405; in assay [2] it was 0.286 OD 405. Besides, the Kd (usually the concentration at which binding is half-saturated) in assay [3] was 0.051 nM.

B2: rabbit monoclonal anti-pY796-DDR1 antibody 31A5 (antibody, V domains shown)
VH: QSVEESGGRLVTPGTPLTLTCKVSGFSLSNYHMIWVRQAPGKGLEWIGIISRRGTTWYASWVKGRFTISKSSTTVDLKITSPTTEDTATYFCARGGVDSSYRDLWGPGTLVTVSS
VL: QVLTQTPSSVSAAVGGTVTINCQSNQRVANVNCLAWYQQKPGQPPKLLIYDASSLASGVPSRFSGSGSGTQFTLSISGVQCGDAATYYCQGTYATFGASAWYGDAFGGGTEVVVE
notes: Full-length rabbit IgG (150 kDa), expressed in HEK293 cells; Same variable domains as 22D9; also called clone 31A5
In the case of B2, the values for the OD 405 in assay [1] and in assay [2] were 2.98 OD 405 and 0.253 OD 405, respectively.

B3: rabbit monoclonal anti-pY796-DDR1 antibody 20G11 (antibody, V domains shown)
VH: QSVEESGGRLVTPGTPLTLTCKVSGFSLSNYHMIWVRQAPGKGLEWIGIISRRGTTWYASWVKGRFTISKGSTTVDLKITSPTTEDTATYFCARGGVDSSYRDLWGPGTLVTVSS
VL: QVLTQTPSSVSAAVGGTVTINCQSSQRVANVNCLAWYQQKPGQPPKLLIYDASSLASGVPSRFSGSGSGTQFTLSISGVQCGDAATYYCQGTYATFGASAWYGDAFGGGTEVVVE
notes: Full-length rabbit IgG (150 kDa), recombinantly expressed in HEK293 cells; also called clone 20G11
As for B3, the OD 405 worked out at 3.06 OD 405 in assay [1] and 0.313 OD 405 in assay [2]. In assay [3], this molecule came in with a Kd of 0.038 nM.
